Data from the nanobody polyreactivity screen of Harvey et al. (2022).

Assay: yeast display, Sf9 membrane polyspecificity reagent, FACS + sequencing; frameworks hold sequencing errors
Method in brief: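 Sorting gates, low and high (top ~1%), were placed on anti-HA fluorescence to track expression and on streptavidin fluorescence to track reagent binding. A clone's polyreactivity label is taken from the gate it came out of. The reagent was 10% biotinylated, detergent-solubilized Sf9 membrane, applied for 1 hour at 4 °C to galactose-induced yeast display cells.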

Row | Sequence | polyreactivity (PSR sort gate)
1 | QVQLVESGGGLVQAGGSLRLSCAASGSIFNRYAMGLYRQAPVKERELVAAISSTGSTYYADSVKGRFTISRDNAKNTVYLQMNSLKPEDTAVYYCATDDPLSQINEQGMDYWGQGTQVTVSS | low polyreactivity
2 | QVQLVESGGGLVQAGGSLRLSCAASGSIFNRYAMGWYRPAPGKEREFVARISKRGGGTYYADSVKGRFTISRDNAKNTVYLQMNSLKPEDTAVYYCAARAYDHTGHVGFDYWGQGTQVTVSS | high polyreactivity
3 | QVQLVESGGGLVQAGGSLRLSCAASGSIFNRYTMGWYRQAPGKERELVAAISKRGGSTYYADSVKGRFTISRDNAKNTVYLQMNSLKPEDSAVYYCAAAAYHSGNGGGYWGQGTQVSVSS | high polyreactivity
4 | QVQLVESGGGLVQAGGSLRLSCAASGSIFNSNGMGWYRPAPGKERELVAAITGGGSTNYADSVKGRFTISRDNAKNTVYLQMNSLKPEDTAVYYCAARPLRTDWAYYYWGQGTQVTVSS | low polyreactivity
5 | QVQLVESGGGLVQAGGSLRLSCAASGSIFNSYAMGWYRQAPGKERELVAAIRWSGGRTYYADSVKGRFTISRDNAKNTVYLQMNSLKPEDTAVYYCNVVSPGRVNYWGQGTQVTVSS | high polyreactivity
6 | QVQLVESGGGLVQAGGSLRLSCAASGSIFNSYAMGWYRQAPGKERELVAAISRSGGRTYYADSVKGRFTISRDNAKNTVYLQMNSLKPEDTAVYYCAADAGSYLSYKAWARKMYYLGQGTQVTVSS | high polyreactivity
7 | QVQLVESGGGLVQAGGSLRLSCAASGSIFNVYAMGWYRQAPGKERELVAAISSSGARTYYADSVKGRFTISRDNAKNTVYLQMNSLKPEDTAVYYCAARSILIRSGGGYPSVWRNYWGQGTQVTVSS | high polyreactivity
8 | QVQLVESGGGLVQAGGSLRLSCAASGSIFNVYVMGWYRQAPGKERELVAAITWSGGTTYYADSVKGRFTISRDNAKNTVYLQMNSLKPEDTAVYYCAAEVWYFYDGYDYWGQGTQVTVSS | high polyreactivity
9 | QVQLVESGGGLVQAGGSLRLSCAASGSIFNWYAMGWYRQAPGNERELVADISWSDGDTYYADSVKGRFSISRDNAKNTDYLQMNSLKPEDTAVYYSAAASNLYYPYYVLGDPYDYWGQGTQVTVSS | low polyreactivity
10 | QVQLVESGGGLVQAGGSLRLSCAASGSIFNYNAMGWYRQAPGKERELVATINKRAGRTYYADSVKGRFTISRDNAKNTVYLQMNSLKPEDTAVYYCAALHSGRVQNFDYWGQGTQVTVSS | high polyreactivity
11 | QVQLVESGGGLVQAGGSLRLSCAASGSIFNYNMGLYRQAPGKERELVAAVSTNYADSVKGRFTISRDNAKNTVYLQMNSLKPEDYAVYYCGVTPEKSGDEYDNWGQGTQVTVSS | low polyreactivity
12 | QVQLVESGGGLVQAGGSLRLSCAASGSIFNYYAMGWYRQAPGKEREFVAAISWRGGSTYYADSVKGRFTISRDNAKNTVYLQMNRLKPEDTAVYYCNARVYGVYRRRVNYWGQGTQVTVSS | high polyreactivity
13 | QVQLVESGGGLVQAGGSLRLSCAASGSIFNYYAMGWYRQAPGKERELVAGITTSGGSTYYADSVKGRFTISRDNAKNTVYLQMISLKPEDTAVYYCAAYDYISSTYFLDDYWGQGTQVSVSS | low polyreactivity
14 | QVQLVESGGGLVQAGGSLRLSCAASGSIFPDYAMGWYRQAPGKERELVAAITWRDDSTYYADSVKGRFTISRDNAKNTVYLQMNSLKPEDTAVYYCNASALDPLYAKDDYWGQGTQVTVSS | low polyreactivity
15 | QVQLVESGGGLVQAGGSLRLSCAASGSIFPENAMGWYRQAPGKERELVAAINRGGSTYYADSVKGRFTISRDNAKNTVYLQMNSLKPVDTAVYYCAAEYSGWGYIFNYWGQGTQVTVSS | low polyreactivity
16 | QVQLVESGGGLVQAGGSLRLSCAASGSIFPGNAMRWYRQAPGKERELVATITWSGGSTYYADSVKGRFTISRDNAKNTVYLQINSLKPEDTAVYYCNADSNWYYQWNYYGLYDYWGQGTQVTVSS | low polyreactivity

Row | Sequence | polyreactivity (PSR sort gate)
17 | QVQLVESGGGLVQAGGSLRLSCAASGSIFPGYAMGWYRQAPGKERELDATITWSGGSTYYADSVKGRFTISRDTAKNTVYLQMNSLKPEDTAVYYCNADSNWYYQWNYYGLYDYWGQGTQVTVSS | low polyreactivity
18 | QVQLVESGGGLVQAGGSLRLSCAASGSIFPGYAMGWYRQAPGKERELVAGITWSDARTYYADSVKGRFTISRDNAKNTVYLQMNCLKPEDTAVYYCAADYYYYELDYWGKGTQVTVSS | low polyreactivity
19 | QVQLVESGGGLVQAGGSLRLSCAASGSIFPGYAMGWYRQAPGKERELVATITYSDGSTYYADSVKGRFTISRDNAKNTVSLQMNSLKPEDTAVYYCNAASRGAGTSIWSWYDHWGQGTQVTVSS | low polyreactivity
20 | QVQLVESGGGLVQAGGSLRLSCAASGSIFPGYTMGWYRQAPGKERELVAAITSSGGSTYYADSVKGRFTISRDNAKNTVYLQMNSLKPEDTAVYYCAADTTNYFDPFDYWGQGTQVTVSS | low polyreactivity
21 | QVQLVESGGGLVQAGGSLRLSCAASGSIFPHNTMGWYRQAPGKERELVAAITRDGTSTYYADSVKGRFTISRDNAKNTVYLQMNSLKPEDTAVYYCAARRARSFYVTYYGVGFNYWGQGTQVTVSS | low polyreactivity
22 | QVQLVESGGGLVQAGGSLRLSCAASGSIFPHYAMGWYRQAHGKERELVAAMSYSGGRTYYADSVKGRFTISRDNAKNTVYLQMNSLKPEDTAVYYCAKPERVLYHGDYWGQGTQVTVSS | low polyreactivity
23 | QVQLVESGGGLVQAGGSLRLSCAASGSIFPHYAMGWYRQAPGKERELVAAISRGGSTNYADSVKGRFTISRDNAKNTVYLQMNSLKPEDTAVYYCAAQGNRYANDYWGQGTQVTVSS | high polyreactivity
24 | QVQLVESGGGLVQAGGSLRLSCAASGSIFPINAMGWYRQAPGKERELVAVITSGGGGTYYADSVKGRFTISRDNAKNTVYLQMNSLKPEDSAVYYCAKRLSRKWQKFGYWGQGSQVTVSS | low polyreactivity
25 | QVQLVESGGGLVQAGGSLRLSCAASGSIFPKYAMGWYRQAPGKERELVAAITSSGGRTYYADSVKGRFSISRDNAKNTVYLQMNSLKPEDTAVYYCAARYRREAAYGFDYWGQGTQVTVSS | high polyreactivity
26 | QVQLVESGGGLVQAGGSLRLSCAASGSIFPKYAMGWYRQAPGKERELVATISYRGGRTYYADSVKGRFTISRDNAKNTVYLQMNSLKPEDTAVYYCAGADYGSYPTYGYFEYYYWGQGTQVTVSS | low polyreactivity
27 | QVQLVESGGGLVQAGGSLRLSCAASGSIFPLSAMGWYRQAPGKERELVAAITWRGGSTYYADSVKGRFTISRDNAKNTVYLQMNSLKPEDTAVYYCNRDLVPRFDYWGQGTQVTVSS | low polyreactivity
28 | QVQLVESGGGLVQAGGSLRLSCAASGSIFPLYGMGWYRQAPGKERELVGAISIGGRTNYADSVKGRFTISRDNAKNTVYLQMNSLKPEDTAVYYCNAVSKFVYRNRILWYDYWGQGTQVTVSS | high polyreactivity
29 | QVQLVESGGGLVQAGGSLRLSCAASGSIFPPYAMGWYRQAPGKERELVAAIDWGGSSTYYADSVKGRFTISRDNAKNTVYLQMNSLKPEDTAVYYCAAEVVHGYYLYEYWGQGTQVTVSS | high polyreactivity
30 | QVQLVESGGGLVQAGGSLRLSCAASGSIFPRNAMGWYRQAPGKERELVARINSGGTTKYADSVKGRFTISRDNAKNTVYLQMNSLKPEDTAVYYCNADTYILDPLRKSYGYDYWGQGTQVTVSS | low polyreactivity
31 | QVQLVESGGGLVQAGGSLRLSCAASGSIFPRYAMGWYRQAPGKERELVAAITGSGSSTYYADSVKGRFTISRDNAKNTVYLQMNSLKPEDTAVYYCAARKARPPFPHPFDYYWGQGTQVTVSS | low polyreactivity
